From paper PMC3257528 (The Journal of Cell Biology, 2011)
Substitutions are numbered along the chain they refer to. Numbers in names are those of the source.

B1: ATL2 (6His-tagged cytoplasmic / soluble domain, ATL2 1–467) (Homo sapiens) (protein)
chain: MAEGDEAARGQQPHQGLWRRRRTSDPSAAVNHVSSTTSLGENYEDDDLVNSDEVMKKPCPVQIVLAHEDDHNFELDEEALEQILLQEHIRDLNIVVVSVAGAFRKGKSFLLDFMLRYMYNKDSQSWIGGNNEPLTGFTWRGGCERETTGIQVWNEVFVIDRPNGTKVAVLLMDTQGAFDSQSTIKDCATVFALSTMTSSVQVYNLSQNIQEDDLQHLQLFTEYGRLAMEEIYQKPFQTLMFLIRDWSYPYEHSYGLEGGKQFLEKRLQVKQNQHEELQNVRKHIHNCFSNLGCFLLPHPGLKVATNPSFDGRLKDIDEDFKRELRNLVPLLLAPENLVEKEISGSKVTCRDLVEYFKAYIKIYQGEELPHPKSMLQATAEANNLAAVAGARDTYCKSMEQVCGGDKPYIAPSDLERKHLDLKEVAIKQFRSVKKMGGDEFCRRYQDQLEAEIEETYANFIKHNDGKN
B2: ATL2 (6His-tagged cytoplasmic / soluble domain, ATL2 1–467) (Homo sapiens; E380R/K372E) (protein)
chain: B1 chain with K372E, E380R

How the values were obtained:
[1] = molecular target: ATL2 (6His-tagged cytoplasmic / soluble domain, ATL2 1–467) (Homo sapiens, UniProt Q8NHH9); experiment: SEC dimer shift; type: binding; conditions: 2 mM GMPPNP (SEC, cross-linking) or 1 mM (EM); 30 min RT
[2] = substrate: Nc1nc2c(ncn2[C@@H]2O[C@H](COP(=O)(O)OP(=O)(O)OP(=O)(O)O)[C@@H](O)[C@H]2O)c(=O)[nH]1; experiment: malachite green phosphate release, Lineweaver-Burk; type: biochemical, Homo sapiens; conditions: 1 µM enzyme, 5, 10, 20 µM GTP, 37 °C

| Molecule | SEC dimer shift (Superdex 200), BMOE cross-linking, negative-stain EM [1] | Km [2] [µM] |
| --- | --- | --- |
| Nc1nc2c(ncn2[C@@H]2O[C@H](COP(=O)(O)OP(=O)(O)NP(=O)(O)O)[C@@H](O)[C@H]2O)c(=O)[nH]1 [GMPPNP, guanosine 5′-[β,γ-imido]triphosphate] | wild-type ATL2 formed dimers in the presence, but not in the absence, of GMPPNP |  |
| B1 |  | 34 |
| B2 |  | 44 |
